Data reported in the Human Domainome abundance scans (Beltran et al. 2025).
± gives the uncertainty stated by the source.

B1: Friend leukemia integration 1 transcription factor, residues 116 to 197; numbered along this chain, Q01543 (parent)
chain: NMTTNERRVIVPADPTLWTQEHVRQWLEWAIKEYSLMEIDTSFFQNMDGKELCKMNKEDFLRATTLYNTEVLLSHLSYLRES

Variants of: B1
Assay: abundance fitness (aPCA) (normalised: wild type 0, dead -1); higher = more abundant; growth selection in yeast, the domain comes from the species named
Settings: Homo sapiens

Abundance fitness, by site and new letter:
F43: L 0.077 ± 0.062 | Y -0.013 ± 0.16 | I -0.164 ± 0.13 | V -0.118 ± 0.072 | Q 0.004 ± 0.074 | T -0.11 ± 0.1 | P -0.052 ± 0.066 | R -0.091 ± 0.059 | W 0.002 ± 0.073 | K -0.118 ± 0.12 | H -0.167 ± 0.17 | G -0.204 ± 0.086 | S -0.037 ± 0.059 | A -0.063 ± 0.077 | C -0.35 ± 0.2 | M -0.019 ± 0.091 | D -0.175 ± 0.26
D48: S -0.013 ± 0.074 | R -0.305 ± 0.082 | H -0.366 ± 0.23 | Q -0.205 ± 0.1 | K -0.227 ± 0.12 | W -0.82 ± 0.21 | A -0.118 ± 0.084 | V 0.031 ± 0.08 | C -0.388 ± 0.17 | G -0.114 ± 0.094 | P -0.295 ± 0.094 | I -0.391 ± 0.27 | E -0.222 ± 0.11 | T -0.04 ± 0.11 | M -0.464 ± 0.12 | Y -0.358 ± 0.23 | N -0.201 ± 0.25
K54: H -0.494 ± 0.26 | P -0.687 ± 0.16 | G -0.015 ± 0.075 | N 0.02 ± 0.18 | L -0.017 ± 0.049 | D 0.098 ± 0.19 | T -0.204 ± 0.085 | R -0.063 ± 0.078 | Q -0.057 ± 0.095 | V -0.14 ± 0.063 | Y -0.359 ± 0.16 | M 0.021 ± 0.073 | W -0.396 ± 0.075 | E 0.1 ± 0.094 | S -0.01 ± 0.07
Q45: K -0.048 ± 0.096 | S -0.003 ± 0.084 | T -0.068 ± 0.08 | W 0.056 ± 0.065 | C -0.081 ± 0.12 | F -0.102 ± 0.16 | Y 0 ± 0.15 | H -0.072 ± 0.15 | R 0.091 ± 0.049 | M 0.026 ± 0.074 | E 0.045 ± 0.081 | D -0.295 ± 0.18 | A 0.028 ± 0.067 | L -0.009 ± 0.049 | V 0.062 ± 0.057 | P -0.381 ± 0.1 | G -0.04 ± 0.07
T41: F 0.302 ± 0.19 | Y 0.051 ± 0.12 | L 0.051 ± 0.063 | V -0.09 ± 0.1 | N -0.103 ± 0.17 | E -0.08 ± 0.11 | A -0.035 ± 0.094 | P 0.003 ± 0.1 | D 0.063 ± 0.21 | R -0.079 ± 0.062 | H -0.14 ± 0.17 | Q -0.076 ± 0.11 | K 0.011 ± 0.093 | C 0.015 ± 0.15 | G -0.129 ± 0.097
F44: S -0.499 ± 0.059 | C -0.117 ± 0.06 | P -0.744 ± 0.11 | G -0.637 ± 0.045 | Q -0.96 ± 0.18 | N -0.875 ± 0.23 | M -0.331 ± 0.071 | R -1.05 ± 0.1 | D -0.914 ± 0.2 | V -0.21 ± 0.039 | T -0.453 ± 0.067 | L -0.227 ± 0.04 | A -0.095 ± 0.042 | E -0.991 ± 0.14 | W -0.13 ± 0.044 | H -0.884 ± 0.18 | I -0.278 ± 0.083
I39: L -0.017 ± 0.06 | T -0.159 ± 0.092 | F -0.112 ± 0.26 | E -0.261 ± 0.13 | C -0.102 ± 0.12 | A -0.259 ± 0.079 | V 0.019 ± 0.072 | M 0.027 ± 0.07 | R -1 ± 0.2 | P -0.654 ± 0.14 | K -1.04 ± 0.48 | W -0.57 ± 0.091 | Q -0.743 ± 0.18 | G -0.85 ± 0.13
C53: A -0.222 ± 0.096 | F 0.031 ± 0.13 | L 0.153 ± 0.047 | S -0.213 ± 0.073 | G -0.142 ± 0.077 | M -0.134 ± 0.092 | N -0.197 ± 0.12 | P -0.905 ± 0.17 | T -0.048 ± 0.088 | Q -0.099 ± 0.092 | W -0.463 ± 0.14 | H -0.324 ± 0.31 | R -0.72 ± 0.11 | E -0.409 ± 0.13 | K -0.553 ± 0.16 | Y -0.377 ± 0.23 | V -0.017 ± 0.07
S42: K -0.223 ± 0.11 | M -0.11 ± 0.054 | L -0.134 ± 0.054 | T 0.023 ± 0.083 | A -0.037 ± 0.063 | G -0.062 ± 0.065 | H -0.054 ± 0.26 | V -0.07 ± 0.08 | P -0.094 ± 0.073 | D 0.084 ± 0.18 | Y -0.264 ± 0.14 | R -0.115 ± 0.068 | N 0.291 ± 0.33 | W -0.294 ± 0.059 | E -0.352 ± 0.12
M55: Q -0.158 ± 0.099 | E -0.805 ± 0.19 | V -0.331 ± 0.072 | A -0.119 ± 0.066 | G -0.75 ± 0.083 | K 0.021 ± 0.14 | S -0.424 ± 0.082 | P -0.784 ± 0.14 | L 0.011 ± 0.055 | T -0.204 ± 0.11 | N -0.752 ± 0.48 | Y -0.273 ± 0.21 | W -0.04 ± 0.082 | I -0.381 ± 0.19 | R -0.444 ± 0.067 | C 0.007 ± 0.15
N56: C -0.157 ± 0.17 | E 0.178 ± 0.1 | F -0.515 ± 0.21 | A -0.091 ± 0.088 | D -0.033 ± 0.13
G49: K -0.994 ± 0.42 | Q -0.977 ± 0.49 | A -1.01 ± 0.15 | L -0.579 ± 0.093 | W -0.777 ± 0.25 | V -0.755 ± 0.14 | I -0.506 ± 0.28 | R -0.889 ± 0.13 | T -0.919 ± 0.27 | M -0.965 ± 0.38 | S -0.943 ± 0.16
M47: T -0.344 ± 0.061 | I 0.077 ± 0.15 | Y 0.092 ± 0.17 | N -0.285 ± 0.31 | W -0.417 ± 0.1 | P -0.706 ± 0.19 | F -0.293 ± 0.19 | A -0.162 ± 0.068 | V -0.093 ± 0.072 | R -0.239 ± 0.048 | H -0.248 ± 0.23 | L -0.004 ± 0.063 | G -0.848 ± 0.19 | E -1.08 ± 0.28 | K -0.161 ± 0.12
E51: F -0.243 ± 0.22 | L -0.135 ± 0.051 | D -0.332 ± 0.28 | C -0.219 ± 0.18 | G -0.058 ± 0.068 | H 0.068 ± 0.12 | W -0.477 ± 0.08 | M -0.1 ± 0.11 | I -0.259 ± 0.23 | R -0.084 ± 0.065 | V -0.127 ± 0.078 | Q 0.03 ± 0.08 | K -0.01 ± 0.094 | P -0.766 ± 0.17 | T 0.034 ± 0.082 | Y -0.679 ± 0.33
E38: K -0.087 ± 0.17 | Q -0.215 ± 0.11 | M -0.09 ± 0.12 | V -0.231 ± 0.096 | H -0.231 ± 0.15 | S -0.068 ± 0.073 | I -0.32 ± 0.052 | W -0.349 ± 0.11 | R -0.203 ± 0.061 | N -0.397 ± 0.23 | C -0.126 ± 0.16 | T -0.145 ± 0.09 | F -0.329 ± 0.18 | L -0.04 ± 0.061 | G -0.131 ± 0.11
D40: E -0.043 ± 0.11 | K -0.276 ± 0.18 | Q -0.252 ± 0.17 | P -0.162 ± 0.11 | I -0.576 ± 0.36 | R -0.469 ± 0.084 | L -0.921 ± 0.12 | V -0.892 ± 0.16 | T -0.268 ± 0.12 | G -0.631 ± 0.076 | M -0.67 ± 0.2 | W -0.887 ± 0.21 | Y -0.686 ± 0.26 | A -0.486 ± 0.1 | N 0.162 ± 0.14 | S -0.217 ± 0.092
K50: H 0.031 ± 0.067 | T 0.212 ± 0.079 | E 0.058 ± 0.1 | W -0.239 ± 0.078 | C -0.281 ± 0.23 | M -0.087 ± 0.12 | S -0.032 ± 0.077 | D -0.093 ± 0.14 | Q 0.013 ± 0.1 | I -0.113 ± 0.18 | P 0.013 ± 0.096 | G -0.059 ± 0.086 | V -0.159 ± 0.1 | N 0.068 ± 0.15 | Y 0.249 ± 0.23 | L -0.12 ± 0.072 | F -0.064 ± 0.053
S35: G 0.073 ± 0.07 | L -0.335 ± 0.069 | F -0.33 ± 0.15 | H -0.132 ± 0.19 | V -0.405 ± 0.08 | P -0.228 ± 0.079 | E -0.101 ± 0.08 | C -0.183 ± 0.18 | T -0.021 ± 0.068 | M -0.271 ± 0.073 | R -0.156 ± 0.066 | A -0.076 ± 0.063 | Q -0.105 ± 0.12 | W -0.509 ± 0.14 | D -0.02 ± 0.16 | N 0.011 ± 0.24
Y34: W 0.046 ± 0.077
L36: G -0.467 ± 0.086 | C -0.769 ± 0.28 | I 0.08 ± 0.17 | T -0.51 ± 0.12 | P -0.573 ± 0.12 | E -0.605 ± 0.14 | V -0.21 ± 0.082 | D -0.521 ± 0.19 | K -0.839 ± 0.36 | A -0.83 ± 0.14 | Q -0.603 ± 0.18 | R -1.04 ± 0.23 | H -0.521 ± 0.37 | S -0.566 ± 0.12 | F -0.195 ± 0.17 | N -0.742 ± 0.28
N46: C -0.153 ± 0.11 | V -0.34 ± 0.23 | R 0.066 ± 0.064 | P -0.205 ± 0.099 | W -0.114 ± 0.092 | I -0.397 ± 0.13 | S -0.087 ± 0.097 | H 0.297 ± 0.25 | Y -0.09 ± 0.12 | M -0.135 ± 0.073 | L -0.175 ± 0.085 | G -0.089 ± 0.24 | F 0.045 ± 0.14 | A -0.077 ± 0.33 | T 0.071 ± 0.099 | K 0.033 ± 0.14
L52: M -0.277 ± 0.17 | W -0.943 ± 0.21 | E -0.976 ± 0.29 | F -0.072 ± 0.12 | P -0.627 ± 0.13 | A -0.602 ± 0.26 | R -1.03 ± 0.16 | C -0.692 ± 0.38 | G -0.915 ± 0.15 | T -0.928 ± 0.29 | V -0.192 ± 0.071 | I -0.608 ± 0.35 | S -0.991 ± 0.18
M37: Q -0.242 ± 0.12 | R -0.055 ± 0.057 | T 0.055 ± 0.079 | C -0.317 ± 0.4 | D 0.021 ± 0.22 | K 0.008 ± 0.093 | L -0.001 ± 0.065 | N -0.44 ± 0.44 | A 0.003 ± 0.068 | E -0.115 ± 0.1 | G -0.02 ± 0.096 | W -0.13 ± 0.062 | P -0.076 ± 0.099 | F 0.187 ± 0.1 | S -0.078 ± 0.092 | Y 0.059 ± 0.13 | V 0.066 ± 0.076
